The record followed here is patent US20250376535A1 (BEIJING STARMAB BIOMED TECHNOLOGY, published 2025).

One test deals with T1, recombinant human IL-22 (human, UniProt Q9GZX6 34-179).
T1 construct: also called rh-IL22
T1 sequence: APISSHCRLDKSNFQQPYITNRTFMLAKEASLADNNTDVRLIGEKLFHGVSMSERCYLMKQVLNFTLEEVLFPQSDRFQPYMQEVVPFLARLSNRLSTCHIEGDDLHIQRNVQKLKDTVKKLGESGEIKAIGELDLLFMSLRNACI
Briefly: BLI (Octet), His-tagged VHH on HIS1K tips, IL-22 in solution.

Test [1] addresses T2, recombinant human CD40-Fc (human, UniProt P25942 21-193).
T2 construct: also called rh-CD40-Fc; CD40-hFc
The experiment in a line: ELISA, CD40-Fc coated, VHH at 8 nM.
Protocol: (§1) After four times washing with PBST, the plate was incubated with detecting antibody anti-his-HRP (1:4000 dilution) 100 μl per well for one hour with shaking at 60 rpm. The plate was developed with 100 μL of TMB per well in the dark and then stopped by 50 μL of stop solution per well.

The target in test [2] is T2, recombinant human CD40-Fc. The experiment in a line: ELISA, CD40-Fc coated, VHH at 40 nM.
Protocol: as §1
Test [3] has as its target T2, recombinant human CD40-Fc. Briefly: ELISA, CD40-Fc coated, VHH at 1.6 nM.
Protocol: as §1
Test [4] concerns the target T2, recombinant human CD40-Fc. Briefly: ELISA, CD40-Fc coated, VHH at 200 nM.
Protocol: as §1
Test [5] addresses T2, recombinant human CD40-Fc. Briefly: ELISA, CD40-Fc coated, VHH at 0.32 nM.
Protocol: as §1
Test [6] deals with T2, recombinant human CD40-Fc. The experiment in a line: ELISA, CD40-Fc coated, VHH at 1000 nM.
Protocol: as §1
Test [7] has as its target T2, recombinant human CD40-Fc. The experiment in a line: ELISA, CD40-Fc coated, VHH at 0.013 nM.
Protocol: as §1
Test [8] addresses T2, recombinant human CD40-Fc. The experiment in a line: ELISA, CD40-Fc coated, VHH at 0.064 nM.
Protocol: as §1
The target of test [9] is T2, recombinant human CD40-Fc. The experiment in a line: ELISA, CD40-Fc coated, VHH at 0.0026 nM.
Protocol: as §1
Test [10] addresses T3, Human CD40 antigen (recombinant, BLI) (human, UniProt P25942 21-193).
T3 construct: also called rh-CD40
The experiment in a line: BLI, VHH-His on anti-His tips, human CD40 in solution.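 Also: kinetics measured at 30 °C in PBS pH 7.2, association tracked for 200 s, then dissociation followed in PBS lacking CD40.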
Protocol: Bio-Layer Interferometry (BLI) kinetic binding analysis. […] Affinity measurements were performed with Gator equipped with Anti-Penta-His capture (HIS1K) biosensor tips. The assay was performed at 30° C. in 1×PBS buffer (Gibco®, PBS pH7.2). Samples were agitated at 1000 rpm. Prior to analysis, sensors were humidified for 15 min. […] Sensor data was collected throughout the experiments, processed, and analyzed using the Gator data analysis software.
Briefly, purified anti-CD40 VHH was tested for its binding capacity with HIS1K sensor tips. Tips were loaded using 20 μg/ml of anti-CD40 VHH. Loading proceeded for 300 sec resulting in capture levels of between 1.8 and 2 nm. […] Association was initiated and monitored for 200 sec, after which tips were transferred to 1×PBS buffer without CD40 protein in order to monitor dissociation.

Another test deals with T4, human serum albumin (human, UniProt P02768 25-609).
T4 construct: also called HSA
The experiment in a line: BLI (Gator), His-tagged VHH on anti-His sensor, HSA 100 nM in solution.

Where only a bound is given, the exact number is not on record here.

T2 sequence (P25942 21-193): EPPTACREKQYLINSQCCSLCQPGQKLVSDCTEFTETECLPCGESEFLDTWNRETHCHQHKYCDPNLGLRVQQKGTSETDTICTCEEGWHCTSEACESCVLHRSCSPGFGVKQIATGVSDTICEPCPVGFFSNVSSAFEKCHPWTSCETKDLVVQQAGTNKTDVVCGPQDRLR
T3 sequence (P25942 21-193 limits assumed): as the sequence (P25942 21-193) above
Protocol for human serum albumin: Kinetic binding analysis of MSA VHHs were performed with Gator Prime system equipped with analyze software. […] The experiments were done at 30° C. Prior to analysis, sensors were socked in Q buffer for 600 sec with shaking at 1000 rpm, and then 2 μM of HIS tagged MSA VHHs were loaded to Anti-His sensors with shaking at 400 rpm for 120 sec. Loaded sensors were transferred into Q buffer for 60 sec. Association of HSA or MSA at 100 nM was initiated and monitored for 120-180 sec with shaking at 1000 rpm, and finally dissociation in Q buffer for 120-180 sec with 1000 rpm shaking. Software V2.0 (Gator Bio) was used for data analysis. The on-rate (Kₒₙ) and off-rate (Kd) were determined by fitting of the association and dissociation phases of each sample. The mathematical model used assumes a 1:1 stoichiometry, fitting only one analyte in solution binding to one binding site on the surface. The equilibrium dissociation constant (KD), a measure for affinity, was then calculated as the ratio of Kd and Kₒₙ.
Protocol for recombinant human IL-22: Bio-Layer Interferometry (BLI), a label-free technology was used for measuring the binding kinetics of positive llama single domain antibodies. Affinity measurements were performed with Octet QKe equipped with Anti-Penta-His capture (HIS1K) biosensor tips (ForteBio®). The assay was performed at 30 C in 1×PBS buffer (Gibco®, PBS pH7.2). Samples were agitated at 1000 rpm. Prior to analysis, sensors were humidified for 15 minutes. Purified single domain antibodies was tested for its binding capacity with HIS1K sensor tips. Tips were loaded using 20 μg/ml of single domain antibodies. Loading proceeded for 300 s resulting in capture levels of between 1.8 and 2 nm. […] Association was initiated and monitored for 200 s, after which tips were transferred to 1×PBS buffer without Factor protein (Gibco, PBS pH 7.2), in order to monitor dissociation. Sensor data was collected throughout the experiments, processed, and analyzed using the Octet data analysis software 7 (Forte Bio).

B1: IL22-A3 (VHH)
VHH: QVQLVESGGGLVQPGGSLRLSCEASGRTFSSVSMGWFRQAPGKERVIVAAADWSGTTYYTGSLKGRFTISRDNAKNMVYLQMNSLKPEDTAVYYCAASDPRRSAYKYWGQGTQVTVSS
notes: Llama single domain antibody with C-terminal His-tag; not shown: C-terminal His-tag
On to B1, for which, in the test with recombinant human IL-22, the Kd stood at 0.817 nM, the koff came to 0.000405 s⁻¹ and the kon came out at 496000 M⁻¹ s⁻¹.

B2: IL22-223 (VHH)
VHH: QVQLVESGGGLAQPGGSLRLSCAVSGFTLNYYVIAWFRQAPGKEREGVSCISSSDGSTYYTDSVKGRFTISRDNAKNTVYLQMDSLKPEDTAVYYCAADLRAYYTVPLWASEYDYWGQGTQVTVSS
notes: as for B1
Consider B2, for which, in the test with recombinant human IL-22, the Kd worked out at 1.29 nM, the koff came to 0.00036 s⁻¹ and the kon worked out at 278000 M⁻¹ s⁻¹.

B3: pgDD40-SZ-7 (VHH, not shown: small tags and cut ends)
VHH: QVQLVESGGALAQPGGSLRLSCEASATVRSVNAMAWYRQGPGKPRELVANITSGDTTYYADSVKGRFTLSREGARNTVYLQMNSLKPEDTAVYQCNIHYTSTGGIRRDYWGRGTQVTVSS
Regarding B3, the OD450 in [1] turned out to be 1.6; in test [2], 1.67; in test [3] it was 1.01; in [4], 1.62; in test [5], 0.332; in test [6] it was 1.67. The OD450 in test [7] was found to be 0.092; in [8] it was 0.088; in test [9], 0.056. In addition, the Kd in test [10] is below 0.001 nM. Moreover, in [10], the koff stood at 1e-06 s⁻¹. Moreover, the kon in test [10] is 721000 M⁻¹ s⁻¹.

B4: pgDD40-SZ-1 (VHH, not shown: small tags and cut ends)
VHH: QVQLVESGGALAQPGGSLRLSCEASTNVRSVNAMAWYRQGPGKPRELVANITSDDATYYADSVKGRFTLSREGARNTVYLQMNSLKPEDTAVYQCNVHYTSWGGIRRDYWGRGTQVTVSS
For B4, the OD450 in test [1] came to 1.66; in [2] it was 1.72; in test [3], 0.866; in test [4], 1.69; in test [5], 0.248; in test [6], 1.68. The figures for the OD450 in test [7], in [8] and in test [9] were 0.056, 0.074 and 0.055, respectively. Also, the Kd in [10] was below 0.001 nM. For the same molecule, the koff in [10] is 1e-06 s⁻¹. The kon in test [10] stood at 779000 M⁻¹ s⁻¹.

B5: pgDD40-SZ-5 (VHH, not shown: small tags and cut ends)
VHH: QVQLVESGGALAQPGGSLRLSCEASENVRSVNAMAWYRQGPGKPRELVANITSGDATYYADSVKGRFTLSREGARNTVYLQMNSLKPEDTAVYQCNVHYTSWGGIRRDYWGRGTQVTVSS
For B5, the OD450 in test [1] was found to be 1.41; in test [2], 1.68; in test [3], 0.85; in test [4] it was 1.73; in [5], 0.25; in test [6], 1.67. The OD450 in test [7] turned out to be 0.061; in test [8], 0.085; in [9] it was 0.059. In addition, the Kd in test [10] was below 0.001 nM. Also, the dissociation rate constant (koff) in test [10] was determined as 1e-06 s⁻¹. Also, the kon in [10] was 784000 M⁻¹ s⁻¹.

B6: pgDD40-SZ-2 (VHH, not shown: small tags and cut ends)
VHH: EVQLVESGGALAQPGGSLRLSCEASATIRSVNAMAWYRQGPGKPREMVANITSGDTTYYADSVKGRFTLSREGARNTVYLQMNSLKPEDTAVYQCNIHYTSTGGIRRDYWGRGTQVTVSS
Regarding B6, the OD450 amounted to 1.59 in [1]; 1.72 in [2]; 0.94 in test [3]; 1.52 in test [4]; 0.293 in test [5]; 1.64 in test [6]. Further, the figures for the OD450 in [7], in [8] and in [9] were 0.062, 0.091 and 0.058, respectively. Further, the Kd in test [10] came to 0.0047 nM. The koff in test [10] came to 3.59e-06 s⁻¹. In addition, the kon in [10] is 765000 M⁻¹ s⁻¹.

B7: pgDD40-HZ-47 (VHH, not shown: small tags and cut ends)
VHH: QVQLVESGGGLVQPGGSMRLSCSASGFSISVYWMSWVRRAPGKGLEWVSNLGADGVTAQYSDSVKGRFTIARDTAKNTLYLQMNSLKPEDTAVYYCNAMTGMNPAEEEAYWGQGTQVTVSS
B7: the OD450 in [1] came out at 0.063; in [2], 0.066; in test [3], 0.056; in [4] it was 0.126; in test [5] it was 0.063; in test [6], 0.569. For the same molecule, the OD450 came to 0.055 in test [7], 0.053 in test [8] and 0.06 in test [9]. In addition, the dissociation constant (Kd) in test [10] was 0.469 nM. Further, the koff in test [10] worked out at 0.000625 s⁻¹. Also, the kon in [10] was 1.33e+06 M⁻¹ s⁻¹.

B8: pgDD40-HZ-15 (VHH, not shown: small tags and cut ends)
VHH: EVQLVESGGGLVQAGGSLRLSCAASGFTFDDYAIGWFRQAPGKEREGVSCLSKNVGNTYYADSVKGRFTISSDNAKNTVYLQMNSLKPEDTAVYYCAKGSGYGCYDFPRYAVWGQGTQVTVSS
For B8, the OD450 was found to be 0.061 in test [1]; 0.076 in test [2]; 0.062 in [3]; 0.166 in test [4]; 0.06 in test [5]; 0.479 in test [6]. The OD450 in [7] was 0.063; in [8], 0.062; in [9] it was 0.064. Moreover, in [10], the Kd was found to be 3.12 nM. In addition, the off-rate constant (koff) in test [10] turned out to be 0.0011 s⁻¹. Further, in test [10], the kon came out at 351000 M⁻¹ s⁻¹.

B9: pgDD40-SZ-3 (VHH, not shown: small tags and cut ends)
VHH: QVQLVESGGGLVQAGDSLRLSCTASGRAFNTYTMAWFRQAPGKERDFVAAISRDGTITHYADSVKGRFTTTRDNAKNTMYLQMSSLKYDDTAVYYCAARRVGAVPERESAYEHWGQGTQVTVSS
In the case of B9, the OD450 in test [1] stood at 1.59; in [2], 1.64; in [3] it was 1.02; in test [4], 1.64; in test [5] it was 0.287; in test [6], 1.57. Also, the OD450 in test [7] was 0.055; in [8], 0.098; in [9], 0.055. Also, the Kd in test [10] worked out at 0.106 nM. Also, the koff in test [10] was 7.65e-05 s⁻¹. For the same molecule, the kon in test [10] was found to be 722000 M⁻¹ s⁻¹.

B10: Humanized IL22-223 (VHH)
VHH: EVQLVESGGGLVQPGGSLRLSCAASGFTLNYYVMSWFRQAPGKEREGVSAISSSDGSTYYADSVKGRFTISRDNSKNTLYLQMNSLRAEDTAVYYCAADLRAYYTVPLWASEYDYWGQGTVSS
notes: not shown: C-terminal His-tag
B10: in the test with recombinant human IL-22, the Kd was determined as 1.07 nM, the koff came out at 0.000547 s⁻¹ and the kon was 509000 M⁻¹ s⁻¹.

B11: IL22-354 (VHH)
VHH: EVQLVESGGGLVQPGGSLRLSCAASGFTLDYYAIAWFRQAPGKEREGVSCISTSDGSTYYADSVKGRFTISRDNAKNTVYLQMNSLKPEDTAVYYCAADPSPFFVAPLVDYEYDYWGQGTQVTVSS
notes: as for B1
Consider B11, for which, in the test with recombinant human IL-22, the Kd worked out at 0.366 nM, the koff amounted to 0.000184 s⁻¹ and the kon came out at 503000 M⁻¹ s⁻¹.

B12: MSA2 (VHH)
VHH: EVQLVESGGGLAQAGGFLRLSCADSGHSFSLYAMAWFRQTPEKEREFVAAISSSGGDTYYADSVKGRFTISRENAKNTVYLQMDSLKPGDTAVYFCAGNYYTSQLMRGMYEHWGQGTQVTVSS
notes: Llama single domain antibody with C-terminal His-tag, made in HEK293; not shown: C-terminal His-tag
In turn, B12 had a koff with human serum albumin of 0.0225 s⁻¹.

B13: pgDD40-HZ-28 (VHH, not shown: small tags and cut ends)
VHH: EVQLVESGGGLVQAGGSLRLSCVASERTFTPVRMGWFRQAPGKEREIVAAITWSDGSTYYADAVKGRFTISRDNALNAVYLQIDSLKPEDTAVYVCAASTSPYSTHLQFRYWGQGTQVTVSS
As to B13, the OD450 in [1] amounted to 0.059; in test [2] it was 0.067; in [3], 0.062; in [4], 0.123; in [5], 0.066; in test [6] it was 0.419. For the same molecule, the results for the OD450 in [7], in [8] and in [9] were 0.075, 0.07 and 0.061, respectively. Besides, the Kd in test [10] turned out to be 4.06 nM. Also, the koff in [10] came to 0.00372 s⁻¹. The kon in test [10] worked out at 917000 M⁻¹ s⁻¹.

B14: MSA6 (VHH)
VHH: QVQLVESGGGLVQPGGSLRLSCAASGLPSRVMGWFRQAAGKEREFVASISVSGIDTRYGDSVKGRFTISRDNTKSSLYLQMNSLKPEDTAVYYCAATDGQGNYRHWGQGTQVTVSS
notes: as for B12
As for B14, in the test with human serum albumin, the affinity, expressed as Kd, was 20.9 nM; the koff came to 0.00125 s⁻¹; the kon came out at 59800 M⁻¹ s⁻¹.
